The supplement of paper PMC10126150
± gives the standard deviation of the averaged measurements.

System: ATP
Experiment: switch fluorescence ratio, 500 uM ATP over buffer (Cy3 cluster intensity, sum of 5 cycles each) (fold (ratio)); higher = stronger signal-on switching upon ATP binding; sequences stand for … in TCGTCGGCAGCGTCAGATGTGTATAAGAGACAGTTTTTTTTTTTTTTTTTTTTTTTTT…TC
Conditions: aptamer strand: ATP DNA aptamer (quencher-CACCTGGGGGAGTATTGCGGAGGAAGG + anchor), 100 nM annealed; ATP concentration: 500 uM
Outline: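 The fluorescence ratio divides summed target-cycle Cy3 intensity by summed buffer-cycle Cy3 intensity for each cluster and is averaged per switch-domain sequence. Cy3-labelled switching-strand clusters on a modified Illumina MiSeq flow-cell were annealed to 100 nM quencher-labelled ATP aptamer, then imaged in selection buffer and again after 15 min with 500 uM ATP at 22 °C. Five such cycles were run, with NaOH stripping and re-annealing between them, and clusters outside 100-1000 RFU were excluded.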
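Further: ATP exposure 15 min at 22 °C before imaging.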

| Sequence | switch fluorescence ratio |
| --- | --- |
| TTTTGAAAGT | 1.07 ± 0.14 |
| TTTTGAATAA | 0.9685 ± 0.0049 |
| TTTTGACCGC | 1.09 ± 0.061 |
| TTTTGACTGT | 0.966 ± 0.015 |
| TTTTGAGATC | 1.04 ± 0.045 |
| TTTTGAGGAG | 0.9807 ± 0.0038 |
| TTTTGAGGTT | 0.983 ± 0.034 |
| TTTTGAGTGA | 0.954 ± 0.041 |
| TTTTGAGTGT | 0.995 ± 0.051 |
| TTTTGATAGA | 1 ± 0.058 |
| TTTTGATATA | 0.9989 ± 0.0085 |
| TTTTGATCAA | 1.01 ± 0.02 |
| TTTTGATCGA | 1.03 ± 0.11 |
| TTTTGATCGG | 0.982 ± 0.037 |
| TTTTGATGAT | 1.02 ± 0.013 |
| TTTTGATGTA | 0.977 ± 0.019 |
| TTTTGATTTA | 1 ± 0.053 |
| TTTTGATTTT | 1.02 ± 0.041 |
| TTTTGCATTA | 1.33 ± 0.5 |
| TTTTGCCCGG | 1.01 ± 0.033 |
| TTTTGCGCGA | 1.09 ± 0.095 |
| TTTTGCGGTT | 0.998 ± 0.038 |
| TTTTGCTCAA | 0.996 ± 0.011 |
| TTTTGCTTCT | 1.03 ± 0.02 |

| Sequence | switch fluorescence ratio |
| --- | --- |
| TTTTGGAAAA | 1.02 ± 0.017 |
| TTTTGGAAGA | 0.983 ± 0.039 |
| TTTTGGAAGG | 1.02 ± 0.0083 |
| TTTTGGAATA | 1.02 ± 0.059 |
| TTTTGGAGGG | 1.01 ± 0.034 |
| TTTTGGCCAG | 0.991 ± 0.061 |
| TTTTGGCCTG | 1.02 ± 0.038 |
| TTTTGGCTAA | 1.01 ± 0.022 |
| TTTTGGCTGG | 1.01 ± 0.052 |
| TTTTGGCTGT | 1.09 ± 0.25 |
| TTTTGGGA | 1.01 ± 0.064 |
| TTTTGGGAAT | 1.04 ± 0.052 |
| TTTTGGGCCT | 1.042 ± 0.0088 |
| TTTTGGGTTC | 1.03 ± 0.07 |
| TTTTGGGTTT | 1.02 ± 0.086 |
| TTTTGGTCTG | 1.01 ± 0.031 |
| TTTTGGTTAC | 1.04 ± 0.055 |
| TTTTGGTTGA | 0.977 ± 0.025 |
| TTTTGGTTTT | 1 ± 0.039 |
| TTTTGTAATG | 0.991 ± 0.035 |
| TTTTGTAGCA | 1.1 ± 0.03 |
| TTTTGTATGG | 0.9893 ± 0.0079 |
| TTTTGTATTG | 0.98 ± 0.024 |
| TTTTGTCAGG | 0.993 ± 0.0079 |

| Sequence | switch fluorescence ratio |
| --- | --- |
| TTTTGTGATT | 0.984 ± 0.013 |
| TTTTGTGGGG | 0.999 ± 0.037 |
| TTTTGTGTTG | 0.996 ± 0.013 |
| TTTTGTTAAA | 1.01 ± 0.028 |
| TTTTGTTACA | 1.011 ± 0.0029 |
| TTTTGTTAGG | 0.98 ± 0.01 |
| TTTTGTTGCA | 1.038 ± 0.0056 |
| TTTTGTTTAC | 1.01 ± 0.028 |
| TTTTGTTTGC | 1.02 ± 0.03 |
| TTTTTAAAAG | 0.988 ± 0.011 |
| TTTTTAAACT | 0.9921 ± 0.0076 |
| TTTTTAAATT | 0.997 ± 0.025 |
| TTTTTAACAC | 1.02 ± 0.021 |
| TTTTTAACGC | 1.3 ± 0.29 |
| TTTTTAAGAT | 0.995 ± 0.035 |
| TTTTTAAGGG | 0.996 ± 0.032 |
| TTTTTACATT | 0.99 ± 0.032 |
| TTTTTACTAG | 1.007 ± 0.0023 |
| TTTTTACTTT | 1.05 ± 0.17 |
| TTTTTAGGGT | 1 ± 0.073 |
| TTTTTAGGTA | 0.992 ± 0.017 |
| TTTTTAGTCG | 1 ± 0.036 |
| TTTTTAGTGT | 1.01 ± 0.035 |
| TTTTTAGTTT | 0.987 ± 0.028 |

| Sequence | switch fluorescence ratio |
| --- | --- |
| TTTTTATACT | 1.02 ± 0.027 |
| TTTTTATAGG | 1.008 ± 0.0041 |
| TTTTTATTA | 1.001 ± 0.0052 |
| TTTTTATTTG | 0.995 ± 0.05 |
| TTTTTCAAAA | 1.029 ± 0.0063 |
| TTTTTCACGA | 1.03 ± 0.019 |
| TTTTTCACGG | 0.999 ± 0.034 |
| TTTTTCACGT | 1.02 ± 0.029 |
| TTTTTCACTG | 1 ± 0.052 |
| TTTTTCAGCA | 1.04 ± 0.029 |
| TTTTTCAGCT | 1.02 ± 0.012 |
| TTTTTCATAT | 1.08 ± 0.2 |
| TTTTTCATCA | 0.982 ± 0.036 |
| TTTTTCATGG | 1 ± 0.031 |
| TTTTTCCAAG | 1.02 ± 0.011 |
| TTTTTCCCCG | 1.33 ± 0.6 |
| TTTTTCCGCG | 1.128 ± 0.0084 |
| TTTTTCCTGA | 1.02 ± 0.011 |
| TTTTTCGCCT | 1.01 ± 0.029 |
| TTTTTCGCGG | 1.01 ± 0.015 |
| TTTTTCGCTG | 1.03 ± 0.022 |
| TTTTTCGGCG | 1.01 ± 0.029 |
| TTTTTCGGG | 0.996 ± 0.014 |
| TTTTTCGGGA | 1 ± 0.023 |

| Sequence | switch fluorescence ratio |
| --- | --- |
| TTTTTCGGTG | 1.04 ± 0.11 |
| TTTTTCGTAA | 1.04 ± 0.061 |
| TTTTTCGTGA | 1.13 ± 0.15 |
| TTTTTCTAAG | 1.014 ± 0.007 |
| TTTTTCTAAT | 1.03 ± 0.071 |
| TTTTTCTGGT | 1.01 ± 0.075 |
| TTTTTGACGG | 1 ± 0.033 |
| TTTTTGATAA | 0.9683 ± 0.0063 |
| TTTTTGCAAT | 1.43 ± 0.24 |
| TTTTTGCTAT | 1.06 ± 0.062 |
| TTTTTGGACT | 0.983 ± 0.012 |
| TTTTTGGCAA | 2.35 ± 2.2 |
| TTTTTGGCAG | 0.971 ± 0.024 |
| TTTTTGGGAT | 1.01 ± 0.031 |
| TTTTTGGGCC | 0.994 ± 0.017 |
| TTTTTGGGGG | 0.997 ± 0.035 |
| TTTTTGGGGT | 0.999 ± 0.034 |
| TTTTTGGGTA | 0.973 ± 0.027 |
| TTTTTGGTGA | 0.984 ± 0.013 |
| TTTTTGTAAA | 0.9936 ± 0.003 |
| TTTTTGTAT | 0.979 ± 0.015 |
| TTTTTGTGTT | 1 ± 0.025 |
| TTTTTGTTCT | 0.996 ± 0.024 |
| TTTTTGTTTC | 1.02 ± 0.046 |

| Sequence | switch fluorescence ratio |
| --- | --- |
| TTTTTTAAGA | 1.01 ± 0.025 |
| TTTTTTATCG | 1 ± 0.031 |
| TTTTTTCAAG | 0.978 ± 0.019 |
| TTTTTTCAGC | 1 ± 0.048 |
| TTTTTTCATC | 1.031 ± 0.0078 |
| TTTTTTCGAT | 0.995 ± 0.047 |
| TTTTTTCGGG | 0.993 ± 0.023 |
| TTTTTTGAAT | 0.995 ± 0.027 |
| TTTTTTGGCA | 0.982 ± 0.035 |
| TTTTTTGGTG | 1.02 ± 0.036 |
| TTTTTTGTGC | 0.9901 ± 0.0052 |
| TTTTTTGTTA | 1 ± 0.024 |
| TTTTTTTACA | 0.998 ± 0.01 |
| TTTTTTTCCT | 1.02 ± 0.066 |
| TTTTTTTGGA | 0.976 ± 0.021 |
| TTTTTTTGGC | 1.02 ± 0.029 |
| TTTTTTTGGG | 1 ± 0.036 |
| TTTTTTTTAC | 1.04 ± 0.029 |
| TTTTTTTTCG | 1.05 ± 0.12 |
| TTTTTTTTG | 0.987 ± 0.019 |
| TTTTTTTTGC | 1.02 ± 0.092 |
| TTTTTTTTTA | 1.01 ± 0.022 |
